Measurements published in the nanobody polyreactivity screen of Harvey et al. (2022).

Test: yeast display, Sf9 membrane polyspecificity reagent, FACS + sequencing; frameworks hold sequencing errors
Method in brief: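 A nanobody's polyreactivity label depends on the gate it was sorted from. Yeast display cells were stained with 10% biotinylated, detergent-solubilized Sf9 membrane reagent for 1 hour at 4 °C, enriched on streptavidin microbeads and sorted by FACS. The low and high (top ~1%) gates were set on anti-HA fluorescence for expression and streptavidin fluorescence for reagent binding.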
With “QVQLVESGGGLVQAGGSLRLSCAASGRIFIEYAMGWYRQAPGKERELVATINSSGGRTYYADSVKGRFTISRDNAKNTVYLQMHSLKPEDTAVYYCNADVGLLYTETYEYDYWGQGTQVTVSS” the “polyreactivity (PSR sort gate)” value was “low polyreactivity”.
In the case of “QVQLVESGGGLVQAGGSLRLSCAASGRIFIFNAMGWYRQAPGKERELVAAISTRGGSTRYADSVKGRFTISRDNAKNTVYLQMNSLKPEDTAVYYCAAVYLYYAYAFDYWGQGTQVTVSS”, the “polyreactivity (PSR sort gate)” value is reported as “high polyreactivity”.
In the case of “QVQLVESGGGLVQAGGSLRLSCAASGRIFIGNAMGWSRQAPGKERELVAAISSSGGSTYYADSVKGRFTISRDNAKNTVYLQMNSLKPEDTAVYYCAAETKNAPRFYPYSNEGYYYWGHGTQVTVSS”, the “polyreactivity (PSR sort gate)” value is reported as “low polyreactivity”.
With “QVQLVESGGGLVQAGGSLRLSCAASGRIFIGNAMGWYRQAPGKERELVADISYSGGTTYYADSVKGRFTISRDNAKNTVYLQMNSLKPEDTAVYYCNKYDPRPVWQGWVWIEYYYWGQGTQVTVSS” the “polyreactivity (PSR sort gate)” value was “low polyreactivity”.
For “QVQLVESGGGLVQAGGSLRLSCAASGRIFIHNAMGWYRQAPGKERELVAAISSRGSRTSYADSVKGRFTISRDNAKNTVYLQMNSLKPEDTSVYYCNAAPIAKYDYWGQGTQVTVSS”, the “polyreactivity (PSR sort gate)” value was “high polyreactivity”.
In the case of “QVQLVESGGGLVQAGGSLRLSCAASGRIFIHYAMGGYRHAPGKERELVAAISASGGTTNYADSVKGRFTISRDNAKNTVYLQMNSLKPEDTAVYYCNKDYPQNPLPASSYYLGRFDYWGQGSQVTVSS”, the “polyreactivity (PSR sort gate)” value is reported as “high polyreactivity”.
For “QVQLVESGGGLVQAGGSLRLSCAASGRIFIPYAMGWYIQAPGKERELVAAISSSGGSTYYADSVKGRFTISRDTAKNTVYLQMNSLKPEDTEVYFCAARLYWGYAYENYSSLFEYDYWGQGTQVTVSS”, the “polyreactivity (PSR sort gate)” value was “low polyreactivity”.
For “QVQLVESGGGLVQAGGSLRLSCAASGRIFIRAMGWYRQAPGKERELVAGITNGGITYYADSVKGRFTISRDNAKNTVYLQMISLKPEDTAVYFCNDRSSSVDYNYDYWGQGTQVTVSS”, the “polyreactivity (PSR sort gate)” value was “low polyreactivity”.
With “QVQLVESGGGLVQAGGSLRLSCAASGRIFITNAMGWYRPAPGKERELVAVISYIGGRTYYADSVKGRFTISRDNAKNTVYLQMNSLKPEDTAVYYCAARRSRPTYFSTGVNYWGQGTQVTVSS” the “polyreactivity (PSR sort gate)” value was “high polyreactivity”.
With “QVQLVESGGGLVQAGGSLRLSCAASGRIFITYAMGWYRPAPGTERELVAAIDSRGGSTYYADSVKGRFTISRDNAKNTDYLQMNSLKPEDTSVNYCAAEFYYIWLYEYWGQGTQVTVSS” the “polyreactivity (PSR sort gate)” value was “high polyreactivity”.
For “QVQLVESGGGLVQAGGSLRLSCAASGRIFIYYAMGWYRQAPGKERELVAAISWGGGRTYYADSVKGRFTLSRYNAKNTVYLQMNSLKPEDTAVYYCAAGVYTGQNEYDYWGQGTQVTVSS”, the “polyreactivity (PSR sort gate)” value was “low polyreactivity”.
In the case of “QVQLVESGGGLVQAGGSLRLSCAASGRIFIYYTMGWYRPAPGKERELVASITWSGGRTYYADSVKGRFTISRDNAKNTVYLQMNSLKPEDNAVYYCNAGYSIGLVAYGYWGQGTQVTVSS”, the “polyreactivity (PSR sort gate)” value is reported as “low polyreactivity”.
For “QVQLVESGGGLVQAGGSLRLSCAASGRIFKAYAMGWYRQAPGKERELVAAITSTGSTYYADSVKGRFTISRDNAKNTVYLQMNSLKPEDTAVYSCARRPSYYQGDYWGQGTQVTVSS”, the “polyreactivity (PSR sort gate)” value was “high polyreactivity”.
For “QVQLVESGGGLVQAGGSLRLSCAASGRIFKDHAMGWYRQAPGKERELVAGITSIGDNTYYADSVKGRFTISRDNAKNTVYLQMNSLKPEHTAVYYCNADYGYDSVVEYDYWGQGTQVTVSS”, the “polyreactivity (PSR sort gate)” value was “low polyreactivity”.
In the case of “QVQLVESGGGLVQAGGSLRLSCAASGRIFKFYAMGWYRQAPGKERELVAAISRTGGNTYYADSVKGRFTISRDNAKNTVYLQMNSLKPEDTAVYYCAAETYARSSSSKYEYWGQGTQVTVSS”, the “polyreactivity (PSR sort gate)” value is reported as “high polyreactivity”.
In the case of “QVQLVESGGGLVQAGGSLRLSCAASGRIFKGYAMGWYRQAPGKERELVAAITWRGGTTYYADSVKGRFTISRDNAKNTVYLQMNSLKPEDTAVYYCAVSGKTAHSPQRYYYWGQGTQVTVSS”, the “polyreactivity (PSR sort gate)” value is reported as “high polyreactivity”.
In the case of “QVQLVESGGGLVQAGGSLRLSCAASGRIFKIYAMGWYRQAPGKERELVAAISRGGRTYYADSVKGRFTISRDNAKNTVYLQMNSLKPEDTAVYYCAADLLISPEFYYWGQGTQVTVSS”, the “polyreactivity (PSR sort gate)” value is reported as “high polyreactivity”.
For “QVQLVESGGGLVQAGGSLRLSCAASGRIFKKNAMGWYRQAPGKERELVAAISYRGGSTYYADSVKGRFTISRDNAKNTVYLQMNSLKPEDTAVYYCNVGSRGGWDASDYDYWGQGTQVTVSS”, the “polyreactivity (PSR sort gate)” value was “high polyreactivity”.
In the case of “QVQLVESGGGLVQAGGSLRLSCAASGRIFKLYAMGWDRQAPGKERELVAAISKSGGNTYADSVKGRFTISRDNAKNTVYLQMNSLKPEDTAVYYCAATVQSTSDPFDYWGQGTQVTVSS”, the “polyreactivity (PSR sort gate)” value is reported as “low polyreactivity”.
For “QVQLVESGGGLVQAGGSLRLSCAASGRIFKLYAMGWYRQAPGKERELGAAISTSAGSTNYADSEKGRFTISRDNAKNTVYLQMNSLKPEDPAVYYCAVAGVSTYYTYYYWGQGTQVTVSS”, the “polyreactivity (PSR sort gate)” value was “low polyreactivity”.
In the case of “QVQLVESGGGLVQAGGSLRLSCAASGRIFKLYAMGWYRQAPGKERELVAAISTSAGSTNYADSVKGRFTISRDNEKNTVYLQMNSLKPEDTAVYYCAVAGVSTYYTYYYWGQGTQVTVSS”, the “polyreactivity (PSR sort gate)” value is reported as “low polyreactivity”.
For “QVQLVESGGGLVQAGGSLRLSCAASGRIFKQYALGWYRQAPGKERELVAAISVRGGITYYADSVKGRFTISRDNAKNTVYLQMNSLKPEDTAVYYCAKRSYRTHTYDYWGQGTQVTVSS”, the “polyreactivity (PSR sort gate)” value was “low polyreactivity”.
With “QVQLVESGGGLVQAGGSLRLSCAASGRIFKQYAMGWYRQAPGKERELVAAISWDGGSTYYADSVKGRFTISRDNAKNTVYLQMNSLKPEDTAVYDCNKDLYYAYDYWGQGTQVTVSS” the “polyreactivity (PSR sort gate)” value was “low polyreactivity”.
With “QVQLVESGGGLVQAGGSLRLSCAASGRIFKRNAMGWYRQAPGKERELVAAISSGTSTNYADSVKGRFTISRDNAKNTVYLQMNSLKPEDTAVYYCAVRPVDYRGYYYWGQGTQVTVSS” the “polyreactivity (PSR sort gate)” value was “high polyreactivity”.
In the case of “QVQLVESGGGLVQAGGSLRLSCAASGRIFKRYTMGWYRQAPGQERELVAGITFSGGSTYYADSVKGRFTISRDNAKNTVYLQMNSLKPEDTAVYYCNARVPPQGWGPWKAFDYWGQGTQVTVSS”, the “polyreactivity (PSR sort gate)” value is reported as “low polyreactivity”.
For “QVQLVESGGGLVQAGGSLRLSCAASGRIFKSYAMGWYRPAPGKERELVAAINWSGGSTYYADSVKGRFTISRDTAKNTVYLQMNSLKPEDTAVYYCNALYAVRSYDSWGQGTQVTVSS”, the “polyreactivity (PSR sort gate)” value was “high polyreactivity”.
With “QVQLVESGGGLVQAGGSLRLSCAASGRIFKTNAMGWYRQAPGKERELVAGITSGGGTNYADSVKGRFTISRDNAKNTVYLQMNSLKPEDTAVYYCAKDRNFRHIKYSWGGYPYTMDYWGQGTQVTVSS” the “polyreactivity (PSR sort gate)” value was “low polyreactivity”.
With “QVQLVESGGGLVQAGGSLRLSCAASGRIFKTYAMGWYRQAPGKERELVAAITSGGSTYYADSVKGRFTISRDNAKNTVYLQMNSLKPEDTAVYYCNRVYRYVYSWAYNYWGQGTQVTVSS” the “polyreactivity (PSR sort gate)” value was “high polyreactivity”.
In the case of “QVQLVESGGGLVQAGGSLRLSCAASGRIFKTYAMGWYRQAPGKERELVAAITWDVVRTYYADSVKGRFTISRDNAKNTVYLQMNSLKPEETAVYYCAAEGIRRSQRFNYWGQGTQVTVSS”, the “polyreactivity (PSR sort gate)” value is reported as “high polyreactivity”.
In the case of “QVQLVESGGGLVQAGGSLRLSCAASGRIFKVYTMGWYRQAPGKERELVATITRSGTSTYYADSVKGRFTISRDNAKNTVYLQMNSLKPEDTAVYYCARRVGYKFSYDYWGQGTQVTVSS”, the “polyreactivity (PSR sort gate)” value is reported as “high polyreactivity”.
For “QVQLVESGGGLVQAGGSLRLSCAASGRIFKWYAMGWYRQAPGKEREFVAGIRWGGGRTHYADSVKGRFTISRDNAKNTVYLQMNSLKPEDTAVYYCAATSIGRYKSRLDYWGQGTQVTVSS”, the “polyreactivity (PSR sort gate)” value was “high polyreactivity”.
With “QVQLVESGGGLVQAGGSLRLSCAASGRIFKYNAKGWYRQAPGKERELVAAISGTGGSTYYADSVKGRFTISRDNAKNTVYLQMNSLKPEDTAVYYCNRRYYGHSTWKYDYWAQGTQVTVSS” the “polyreactivity (PSR sort gate)” value was “high polyreactivity”.
In the case of “QVQLVESGGGLVQAGGSLRLSCAASGRIFKYYAMGWYREAPGKERELVAAIDWRGDSTYYADSVKGRFTISRDHAKNTVYLQMNSLKPEDTAVYYCAVVGTRGYHGYDSWGQGTQVTVSS”, the “polyreactivity (PSR sort gate)” value is reported as “low polyreactivity”.
For “QVQLVESGGGLVQAGGSLRLSCAASGRIFKYYAMGWYRPAPGKERELVAAISRSSGRTYYADSVKGRFTISRDNAKNTVYFQMNSLKPEDTAVYYCNALPSTVYLTYDYWGQGTQVTVSS”, the “polyreactivity (PSR sort gate)” value was “high polyreactivity”.
In the case of “QVQLVESGGGLVQAGGSLRLSCAASGRIFKYYAMGWYRQAPGKERELVAAISQNGGRTYYADSVKGRFTISRDNAKNTVYLQMNSLKPEDTAVYYCAAGWRSYAGYYQGEFGYWGQGTQVTVSS”, the “polyreactivity (PSR sort gate)” value is reported as “high polyreactivity”.
With “QVQLVESGGGLVQAGGSLRLSCAASGRIFKYYAMGWYRQAPGKERELVAAISRSGGRTYYADSVKGRFTISRDNAKNTVYLQMNSLKPEDTAVYYCNARVYSGHNYWGQGTQVTVSS” the “polyreactivity (PSR sort gate)” value was “high polyreactivity”.
With “QVQLVESGGGLVQAGGSLRLSCAASGRIFKYYAMGWYRQAPGKERELVAAITSSGVSTYADSVKGRFTISRDNAKNTVYLQMISLKPEDTAVYYCADDYVREGLGYDYWGQGTQVTVSS” the “polyreactivity (PSR sort gate)” value was “low polyreactivity”.
For “QVQLVESGGGLVQAGGSLRLSCAASGRIFKYYAMGWYRQAPGKERELVAAITYSGGSTYADSVKGRFTISRDNAKNTVYLQMNSLKPEDTAVYYCAVARRSRVVSSIRGDYWGQGTQVTVSS”, the “polyreactivity (PSR sort gate)” value was “high polyreactivity”.
With “QVQLVESGGGLVQAGGSLRLSCAASGRIFKYYGMGWYRQAPGKERELVAAISRGSSTNYADSVKGRFTISRDNAKNTVYLQMNSLKPEDTAVYYCAVSLRRGGSGYAYDYWGQGTQVTVSS” the “polyreactivity (PSR sort gate)” value was “high polyreactivity”.
In the case of “QVQLVESGGGLVQAGGSLRLSCAASGRIFKYYGMGWYRQAPGKESELVAAITRGDSTNYADSVKGRFTISRDNAKNTVYLQMNSLKPEDTAVYYCNVGTRRGYDYWGQGTQVTVSS”, the “polyreactivity (PSR sort gate)” value is reported as “high polyreactivity”.
In the case of “QVQLVESGGGLVQAGGSLRLSCAASGRIFKYYTMGWYRQAPGKERELVAAISRDDSTNYADSVKGRFTISRDNAKNTVYLQMNSLKPEDTAVYYCAKGYHQYAGFYYWGLGTQVTVSS”, the “polyreactivity (PSR sort gate)” value is reported as “high polyreactivity”.
For “QVQLVESGGGLVQAGGSLRLSCAASGRIFKYYTMGWYRQATGKEREFVASITGSGGTTYYADSVKGRFTISRDNAKNTVYLQMNSLKPEDTAVYYCNAYSYPYWYRYYYWGQGTQVTVSS”, the “polyreactivity (PSR sort gate)” value was “high polyreactivity”.
With “QVQLVESGGGLVQAGGSLRLSCAASGRIFKYYVMGWYRQAPGKERELVATISRRDASTYYADSVKGRFTISRDNAKNTVYLQMNSLKPEDTAVYYCNADRARSERIKYDYWGQGTQGTVSS” the “polyreactivity (PSR sort gate)” value was “high polyreactivity”.
